In article PMC3670212 (Cell, 2013):

Key:
[1] = biological target: E. coli DnaB replicative helicase (E. coli, UniProt P0ACB0 1-471); assay: negative-stain electron microscopy
[2] = biological target: the molecule itself; assay: negative-stain electron microscopy

Sequence of E. coli DnaB replicative helicase (P0ACB0 whole entry): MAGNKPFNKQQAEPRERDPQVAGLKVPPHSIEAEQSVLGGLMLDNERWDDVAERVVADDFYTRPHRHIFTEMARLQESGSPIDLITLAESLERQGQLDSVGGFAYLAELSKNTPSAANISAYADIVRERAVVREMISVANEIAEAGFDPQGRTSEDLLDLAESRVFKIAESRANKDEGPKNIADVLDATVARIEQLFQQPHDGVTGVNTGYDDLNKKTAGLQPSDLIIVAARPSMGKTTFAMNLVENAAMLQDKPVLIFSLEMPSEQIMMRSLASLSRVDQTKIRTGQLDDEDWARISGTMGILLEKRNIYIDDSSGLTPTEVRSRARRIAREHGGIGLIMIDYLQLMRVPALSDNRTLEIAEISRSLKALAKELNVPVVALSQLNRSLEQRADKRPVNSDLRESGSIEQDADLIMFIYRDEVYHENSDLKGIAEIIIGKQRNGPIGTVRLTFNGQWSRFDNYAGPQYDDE

B1: E. coli DnaC helicase loader (natural protein, UniProt P0AEF0 1-245, looked up)
chain: MKNVGDLMQRLQKMMPAHIKPAFKTGEELLAWQKEQGAIRSAALERENRAMKMQRTFNRSGIRPLHQNCSFENYRVECEGQMNALSKARQYVEEFDGNIASFIFSGKPGTGKNHLAAAICNELLLRGKSVLIITVADIMSAMKDTFRNSGTSEEQLLNDLSNVDLLVIDEIGVQTESKYEKVIINQIVDRRSSSKRPTGMLTNSNMEEMTKLLGERVMDRMRLGNSLWVIFNWDSYRSRVTGKEY
[1]
  stoichiometry N: 6 DnaC subunits per DnaB hexamer
[2]
  stoichiometry N: 6
